In paper PMC3804511:

Columns and labels:
[1] = target: T1, GST-Kic1(1-359)-His6 (wild type) (S. cerevisiae) (UniProt P38692)
T1 sequence: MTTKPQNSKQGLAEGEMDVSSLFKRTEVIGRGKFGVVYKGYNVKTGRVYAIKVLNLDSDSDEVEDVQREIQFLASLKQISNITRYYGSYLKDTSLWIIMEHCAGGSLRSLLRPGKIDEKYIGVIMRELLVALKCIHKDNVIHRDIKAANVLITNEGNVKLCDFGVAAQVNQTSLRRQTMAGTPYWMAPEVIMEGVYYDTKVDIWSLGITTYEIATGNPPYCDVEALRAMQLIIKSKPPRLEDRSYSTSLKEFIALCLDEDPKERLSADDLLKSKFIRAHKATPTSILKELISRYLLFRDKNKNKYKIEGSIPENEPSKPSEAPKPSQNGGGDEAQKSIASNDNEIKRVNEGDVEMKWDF

[2] = target: T1, GST-Kic1(1-359)-His6 (wild type) (S. cerevisiae); remark: listed apart in the source

B1: Hym1-His6 (full length, GST cleaved) (natural protein)
chain: MFKKYKNQDLDMAFWWKKNPKTPSDYARLIIEQLNKFSSPSLTQDNKRKVQEECTKYLIGTKHFIVGDTDPHPTPEAIDELYTAMHRADVFYELLLHFVDLEFEARRECMLIFSICLGYSKDNKFVTVDYLVSQPKTISLMLRTAEVALQQKGCQDIFLTVGNMIIECIKYEQLCRIILKDPQLWKFFEFAKLGNFEISTESLQILSAAFTAHPKLVSKEFFSNEINIIRFIKCINKLMAHGSYVTKRQSTKLLASLIVIRSNNALMNIYINSPENLKLIMTLMTDKSKNLQLEAFNVFKVMVANPRKSKPVFDILVKNRDKLLTYFKTFGLDSQDSTFLDEREFIVQEIDSLPRIISSTTEVSNNNASSSNVASITSPSSVMNNQSSILTHSTSPDSR
[1]
  Kic1 kinase activity (reaction rate over 15 min on GST-Cbk1(673-756)-His6) with Hym1 relative to without Hym1: > 5 fold
[2]
  half maximal activation (Kact) of Kic1 kinase activity (32P transferred to GST-Cbk1(673-756)-His6); Hym1 in 2-fold serial dilutions from 13 µM, Kic1 constant at 0.5 µM: 2 µM
